What is called Kd is the concentration at which binding is half-saturated. A high value points to a looser complex.

Experimental findings from PMC9463662, “Selection of DNA aptamer and its application as an electrical biosensor for Zika virus detection in human serum” are described below.

Data set [1] addresses T1, Zika virus envelope protein (Zika virus, UniProt A0A221S5X1 1-403). Put plainly: bead-based fluorescence binding assay; protein on streptavidin beads. The note with it: protein: commercial.
For data set [2], the target named is albumin (bovine serum albumin in sensor test) (UniProt P02769 25-607). In words: capacitance biosensor; bovine serum albumin.
Data set [3] addresses T1, Zika virus envelope protein. Put plainly: capacitance biosensor; aptamer/MXene on Au micro-gap electrode; DIW or 10% human serum; LOD 38.14 pM in serum. The settings on record: protein: commercial.

albumin (bovine serum albumin in sensor test), sequence (P02769 25-607): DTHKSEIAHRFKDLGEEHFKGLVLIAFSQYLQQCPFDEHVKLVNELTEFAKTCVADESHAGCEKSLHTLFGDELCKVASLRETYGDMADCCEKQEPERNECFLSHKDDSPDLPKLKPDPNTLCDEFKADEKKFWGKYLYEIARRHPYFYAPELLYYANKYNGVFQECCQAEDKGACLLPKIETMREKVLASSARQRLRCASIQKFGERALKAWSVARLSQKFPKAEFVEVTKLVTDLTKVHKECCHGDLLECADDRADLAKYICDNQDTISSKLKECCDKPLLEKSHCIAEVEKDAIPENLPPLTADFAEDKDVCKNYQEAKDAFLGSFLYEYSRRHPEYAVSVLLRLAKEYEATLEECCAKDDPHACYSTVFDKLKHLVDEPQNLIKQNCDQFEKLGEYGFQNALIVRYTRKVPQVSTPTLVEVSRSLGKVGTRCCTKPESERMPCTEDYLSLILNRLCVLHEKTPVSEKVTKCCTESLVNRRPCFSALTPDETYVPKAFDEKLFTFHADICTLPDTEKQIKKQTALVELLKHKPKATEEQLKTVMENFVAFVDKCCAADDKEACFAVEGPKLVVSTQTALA

B1: Zika-25 aptamer, 5'-FAM (ssDNA)
DNA: TGACACCGTACCTGCTCTAAGCACGCCAAGGGACTATAGGTTGACACCGTACCTGCTCTAAGCACGCCAAGGGACTAT
For B1, in data set [1], the affinity, expressed as Kd, was 226 ± 9.6 nM.

B2: Zika-07 (Zika-7) aptamer, 5'-FAM (ssDNA)
DNA: TGACACCGTACCTGCTCTAGTGCGCACTGAACGATCCTGCGTCAAGTTCAAGGTTGTGAAGCACGCCAAGGGACTAT
B2: the Kd in data set [1] is 107 ± 1.9 nM.

B3: thiol-modified Zika-07 aptamer (ssDNA)
DNA: B2 DNA
modifications: 5'-SH
Turning to B3, the binding result in data set [2] is given as “no binding”; in data set [3], “binds”.
